Biological target: WIN332 SOSIP Env trimer (HIV-1 strain BG505)
Experiment: SEC

WIN332 SOSIP Env trimer (complex)
stoichiometry N: 3

Source: paper PMC12956587
